Several values for one entry are separate records, joined by “and”; a condition that tells them apart may be missing. Equal values may be shown once.
B2: DegP^S210A active-site mutant (enzyme, Escherichia coli, UniProt P0C0V0 27-474, looked up)
chain: AETSSATTAQQMPSLAPMLEKVMPSVVSINVEGSTTVNTPRMPRNFQQFFGDDSPFCQEGSPFQSSPFCQGGQGGNGGGQQQKFMALGSGVIIDADKGYVVTNNHVVDNATVIKVQLSDGRKFDAKMVGKDPRSDIALIQIQNPKNLTAIKMADSDALRVGDYTVAIGNPFGLGETVTSGIVSALGRSGLNAENYENFIQTDAAINRGNAGGALVNLNGELIGINTAILAPDGGNIGIGFAIPSNMVKNLTSQMVEYGQVKRGELGIMGTELNSELAKAMKVDAQRGAFVSQVLPNSSAAKAGIKAGDVITSLNGKPISSFAALRAQVGTMPVGSKLTLGLLRDGKQVNVNLELQQSSQNQVDSSSIFNGIEGAEMSNKGKDQGVVVNNVKTGTPAAQIGLKKGDVIIGANQQAVKNIAELRKVLDSKPSVLALNIQRGDSTIYLLMQ

Columns and labels:
DegP = DegP (Escherichia coli, UniProt P0C0V0); format: biochemical; details: reporter 100 μM; no activator; 23 °C, 50 mM sodium phosphate pH 8, 100 mM NaCl
Chain of DegP (P0C0V0 27-474): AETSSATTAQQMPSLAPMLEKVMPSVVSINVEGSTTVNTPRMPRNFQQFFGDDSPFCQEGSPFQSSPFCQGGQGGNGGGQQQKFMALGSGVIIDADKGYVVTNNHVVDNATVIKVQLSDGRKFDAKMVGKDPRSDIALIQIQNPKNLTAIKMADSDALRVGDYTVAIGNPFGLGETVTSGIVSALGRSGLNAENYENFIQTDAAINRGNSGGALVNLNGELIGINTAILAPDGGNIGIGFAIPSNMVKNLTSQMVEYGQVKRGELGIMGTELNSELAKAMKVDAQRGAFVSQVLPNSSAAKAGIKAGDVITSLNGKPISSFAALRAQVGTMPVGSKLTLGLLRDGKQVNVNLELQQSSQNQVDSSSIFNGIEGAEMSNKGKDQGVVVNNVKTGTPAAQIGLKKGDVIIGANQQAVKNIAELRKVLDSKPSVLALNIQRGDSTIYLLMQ

[1] = biological target: T1, DegP^S210A/Y444A (Escherichia coli), P0C0V0; test: SEC; details: remark: other sources report otherwise
T1 chain: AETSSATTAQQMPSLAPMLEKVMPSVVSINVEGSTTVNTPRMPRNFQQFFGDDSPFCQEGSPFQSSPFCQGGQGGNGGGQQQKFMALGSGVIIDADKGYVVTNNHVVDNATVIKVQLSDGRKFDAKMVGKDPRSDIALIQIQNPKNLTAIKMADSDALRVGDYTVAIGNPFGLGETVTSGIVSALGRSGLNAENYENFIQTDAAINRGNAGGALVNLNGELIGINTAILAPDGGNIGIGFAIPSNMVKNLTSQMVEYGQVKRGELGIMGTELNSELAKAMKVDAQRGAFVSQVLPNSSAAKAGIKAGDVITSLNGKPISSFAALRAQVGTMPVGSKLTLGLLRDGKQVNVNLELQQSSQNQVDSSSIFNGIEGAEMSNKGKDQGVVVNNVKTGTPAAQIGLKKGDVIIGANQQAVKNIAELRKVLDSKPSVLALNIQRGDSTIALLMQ

[2] = biological target: T1, DegP^S210A/Y444A (Escherichia coli), …; test: SEC; details: remark: other sources report otherwise
SEC = biological target: the molecule itself; test: SEC
AUC = biological target: the molecule itself; test: AUC
[3] = biological target: B2; test: crystal structure

Abz-KASPVSLGY^NO2D [reporter peptide]
rate of reporter peptide cleavage by DegP alone (DegP): 0.027 min^−1 DegP^−1

B1: DegP^S210A/Y444A, P0C0V0 27-474 (enzyme)
chain: AETSSATTAQQMPSLAPMLEKVMPSVVSINVEGSTTVNTPRMPRNFQQFFGDDSPFCQEGSPFQSSPFCQGGQGGNGGGQQQKFMALGSGVIIDADKGYVVTNNHVVDNATVIKVQLSDGRKFDAKMVGKDPRSDIALIQIQNPKNLTAIKMADSDALRVGDYTVAIGNPFGLGETVTSGIVSALGRSGLNAENYENFIQTDAAINRGNAGGALVNLNGELIGINTAILAPDGGNIGIGFAIPSNMVKNLTSQMVEYGQVKRGELGIMGTELNSELAKAMKVDAQRGAFVSQVLPNSSAAKAGIKAGDVITSLNGKPISSFAALRAQVGTMPVGSKLTLGLLRDGKQVNVNLELQQSSQNQVDSSSIFNGIEGAEMSNKGKDQGVVVNNVKTGTPAAQIGLKKGDVIIGANQQAVKNIAELRKVLDSKPSVLALNIQRGDSTIALLMQ
stoichiometry N [1]: 6
stoichiometry N [2]: 6

B2
stoichiometry N (SEC): 6
stoichiometry N (AUC): 18 and 24 and 30

DNYRGYSLGNWVSAAKFESNFNTQATNRNTDGSTDYGILQI (peptide, UniProt P00698 36-76, looked up) [18-58 polypeptide (lysozyme residues 18-58 with the cysteines mutated to serines)]
binding result [3]: binds
